Results reported in the supplement of paper PMC7877785.
± gives the uncertainty stated by the source.

Assay: self-splicing fitness, log relative to wild type (ln ratio); higher = more splicing; Tetrahymena group I intron in knt gene, E. coli kanamycin selection, DiMSum; sequences stand for … in CUCUCU…GGAGGGAAAAGUUAUCAGGCAUGCACCUGGUAGCUAGUCUUUAAACCAAUAGAUUGCAUCGGUUUAAAAGGCAAGACCGUCAAAUUGCGGGAAAGGGGUCAACAGCCGUUCAGUACCAAGUCUCAGGGGAAACUUUGAGAUGGCCUUGCAAAGGGUAUGGUAAUAAGCUGACGGACAUGGUCCUAACCACGCAGCCAAGUCCUAAGUCAACAGAUCUUCUGUUGAUAUGGAUGCAGUUCACAGACUAAAUGUCGGUCGGGGAAGAUGUAUUCUUCUCAUAAGAUAUAGUCGGACCUCUCCUUAAUGGGAGCUAGCGGAUGAAGUGAUGCAACACUGGAGCCGCUGGGAACUAAUUUGUAUGCGAAAGUAUAUUGAUUAGUUUUGGAGUACUCGUGGUCG
In short: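 Fitness was computed with DiMSum as the error-weighted combination of replicate fold changes, kanamycin versus none, each normalised to wild type. The library randomised all eight intron nucleotides of the P1ex region, with the intron placed in the knt kanamycin-resistance gene on pET-22b(+) in E. coli BL21(DE3). Six replicate transformations were grown overnight at 37°C or 30°C on LB agar with or without 25 μg/mL kanamycin, plus 100 μg/mL carbenicillin, 50 μM IPTG and 0.2% rhamnose. Pooled colonies were amplicon-sequenced on an Illumina HiSeq 2500.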

Row | Sequence | self-splicing fitness (ln) (37 °C) | self-splicing fitness (ln) (30 °C)
1 | GGUGAGCAAUAUUACGAUGG | -1.2 ± 0.39 | 
2 | GGUGAGCAAUAUUACGCAAU | -1.94 ± 0.43 | -3.03 ± 0.32
3 | GGUGAGCAAUAUUACGCCGU |  | -2.63 ± 0.42
4 | GGUGAGCAAUAUUACGCGGC | -1.9 ± 0.28 | -2.2 ± 0.27
5 | GGUGAGCAAUAUUACGCGUU | -0.173 ± 0.16 | -2.61 ± 0.15
6 | GGUGAGCAAUAUUACGGAAG | -2.66 ± 0.41 | 
7 | GGUGAGCAAUAUUACGGAGA |  | -1.36 ± 0.37
8 | GGUGAGCAAUAUUACGGCAA | -1.28 ± 0.42 | -1.26 ± 0.34
9 | GGUGAGCAAUAUUACGGCCA | -0.395 ± 0.17 | -1 ± 0.26
10 | GGUGAGCAAUAUUACGGUUA | -1.85 ± 0.17 | -2.58 ± 0.22
11 | GGUGAGCAAUAUUACGGUUC | -0.574 ± 0.4 | -1.21 ± 0.23
12 | GGUGAGCAAUAUUACGUACC | -1.75 ± 0.37 | -3.31 ± 0.44
13 | GGUGAGCAAUAUUACGUAUG | -0.0178 ± 0.18 | -3.26 ± 0.47
14 | GGUGAGCAAUAUUACGUCCC |  | -2.23 ± 0.39
15 | GGUGAGCAAUAUUACGUCGA | -2.42 ± 0.28 | -3.18 ± 0.31
16 | GGUGAGCAAUAUUACGUGAC | -0.938 ± 0.22 | -3.14 ± 0.22
17 | GGUGAGCAAUAUUACGUUGC |  | -3.27 ± 0.35
18 | GGUUAGCAAUAUUACGAACG | -0.629 ± 0.44 | -0.128 ± 0.21
19 | GGUUAGCAAUAUUACGAACU | -0.492 ± 0.34 | -1.88 ± 0.27
20 | GGUUAGCAAUAUUACGAGCG | -0.0379 ± 0.12 | -0.684 ± 0.12
21 | GGUUAGCAAUAUUACGAGGA | -1.96 ± 0.24 | -3.3 ± 0.29
22 | GGUUAGCAAUAUUACGAUCU | -0.76 ± 0.24 | -1.04 ± 0.24
23 | GGUUAGCAAUAUUACGAUGG | -1.16 ± 0.24 | -1.88 ± 0.23
24 | GGUUAGCAAUAUUACGAUUA | 0.0365 ± 0.12 | -0.191 ± 0.13
25 | GGUUAGCAAUAUUACGCACG | -0.507 ± 0.13 | -0.656 ± 0.11

Row | Sequence | self-splicing fitness (ln) (37 °C) | self-splicing fitness (ln) (30 °C)
26 | GGUUAGCAAUAUUACGCAGU | -1.67 ± 0.3 | -1.5 ± 0.27
27 | GGUUAGCAAUAUUACGCCAU |  | -1.39 ± 0.38
28 | GGUUAGCAAUAUUACGCCCU | -0.983 ± 0.48 | -0.754 ± 0.45
29 | GGUUAGCAAUAUUACGCGAU | -3.48 ± 0.46 | -2.48 ± 0.23
30 | GGUUAGCAAUAUUACGCGUC | -1.04 ± 0.18 | -1.53 ± 0.2
31 | GGUUAGCAAUAUUACGCGUG | -0.592 ± 0.063 | -0.908 ± 0.051
32 | GGUUAGCAAUAUUACGCUGG | -1.59 ± 0.31 | -3.44 ± 0.47
33 | GGUUAGCAAUAUUACGGAAA | -1.76 ± 0.22 | -1.53 ± 0.25
34 | GGUUAGCAAUAUUACGGAAG | -2.49 ± 0.36 | 
35 | GGUUAGCAAUAUUACGGAGU | -0.724 ± 0.2 | -1.27 ± 0.18
36 | GGUUAGCAAUAUUACGGAUG | -0.92 ± 0.14 | -0.648 ± 0.1
37 | GGUUAGCAAUAUUACGGAUU | -0.0766 ± 0.092 | 0.0654 ± 0.078
38 | GGUUAGCAAUAUUACGGCGA | 0.106 ± 0.086 | -0.237 ± 0.09
39 | GGUUAGCAAUAUUACGGCGC | -0.634 ± 0.25 | 0.645 ± 0.28
40 | GGUUAGCAAUAUUACGGGCG | 0.208 ± 0.1 | 0.777 ± 0.094
41 | GGUUAGCAAUAUUACGUAAA | -0.462 ± 0.2 | -1.22 ± 0.13
42 | GGUUAGCAAUAUUACGUCGG | -1.7 ± 0.35 | -2.3 ± 0.36
43 | GGUUAGCAAUAUUACGUCGU | 0.451 ± 0.11 | -0.855 ± 0.073
44 | GGUUAGCAAUAUUACGUCUC | -0.0912 ± 0.18 | -0.348 ± 0.15
45 | GGUUAGCAAUAUUACGUGAG | -0.197 ± 0.12 | -0.894 ± 0.098
46 | GGUUAGCAAUAUUACGUUCC | -0.8 ± 0.12 | -1.45 ± 0.11
47 | GGUUAGCAAUAUUACGUUGU | -1.71 ± 0.18 | -2.02 ± 0.15
48 | GUAAAGCAAUAUUACGAACA | 0.323 ± 0.16 | -0.969 ± 0.15
49 | GUAAAGCAAUAUUACGAAGC | -1.83 ± 0.22 | -1.89 ± 0.13
50 | GUAAAGCAAUAUUACGACCU | 0.00961 ± 0.19 | 0.443 ± 0.18

Row | Sequence | self-splicing fitness (ln) (37 °C) | self-splicing fitness (ln) (30 °C)
51 | GUAAAGCAAUAUUACGACUG | -1.48 ± 0.28 | -2.11 ± 0.2
52 | GUAAAGCAAUAUUACGAGGA | -1.52 ± 0.15 | -1.81 ± 0.1
53 | GUAAAGCAAUAUUACGAGUU | -0.815 ± 0.12 | -1.12 ± 0.093
54 | GUAAAGCAAUAUUACGAUAC | -0.547 ± 0.16 | -0.815 ± 0.14
55 | GUAAAGCAAUAUUACGAUUC | 0.115 ± 0.091 | 0.475 ± 0.08
56 | GUAAAGCAAUAUUACGCAAA | -0.594 ± 0.16 | -0.784 ± 0.13
57 | GUAAAGCAAUAUUACGCAGU | -1.06 ± 0.16 | -2.99 ± 0.18
58 | GUAAAGCAAUAUUACGCAUU | -0.597 ± 0.11 | -1.76 ± 0.099
59 | GUAAAGCAAUAUUACGCCGC | -1.92 ± 0.35 | -2.48 ± 0.3
60 | GUAAAGCAAUAUUACGCCUU | 0.238 ± 0.15 | -1.57 ± 0.11
61 | GUAAAGCAAUAUUACGCGUC | -1.3 ± 0.14 | -1.05 ± 0.12
62 | GUAAAGCAAUAUUACGCUAA | -0.135 ± 0.11 | -1.65 ± 0.087
63 | GUAAAGCAAUAUUACGCUCA | 0.776 ± 0.14 | -0.138 ± 0.095
64 | GUAAAGCAAUAUUACGGAUU | -0.288 ± 0.1 | -0.675 ± 0.079
65 | GUAAAGCAAUAUUACGGUUG | -1.41 ± 0.2 | -2.91 ± 0.21
66 | GUAAAGCAAUAUUACGUCAG | -1.83 ± 0.19 | -3.53 ± 0.32
67 | GUAAAGCAAUAUUACGUCUA | 0.0339 ± 0.13 | 0.446 ± 0.11
68 | GUACAGCAAUAUUACGACGG | -2.89 ± 0.21 | -3.75 ± 0.22
69 | GUACAGCAAUAUUACGAGCA | -1.12 ± 0.13 | -1.59 ± 0.13
70 | GUACAGCAAUAUUACGAUAA | -0.911 ± 0.13 | -1.95 ± 0.12
71 | GUACAGCAAUAUUACGCAAC | -0.557 ± 0.17 | -2.08 ± 0.18
72 | GUACAGCAAUAUUACGCAAG | -2.08 ± 0.17 | -2.59 ± 0.16
73 | GUACAGCAAUAUUACGCAUU | -0.835 ± 0.087 | -2.76 ± 0.14
74 | GUACAGCAAUAUUACGCCCA | 0.32 ± 0.36 | -1.14 ± 0.4
75 | GUACAGCAAUAUUACGCCGA | -1.96 ± 0.41 | 

Row | Sequence | self-splicing fitness (ln) (37 °C) | self-splicing fitness (ln) (30 °C)
76 | GUACAGCAAUAUUACGCGAA | -2.22 ± 0.14 | -2.24 ± 0.13
77 | GUACAGCAAUAUUACGCGAC | -1.87 ± 0.16 | -4.09 ± 0.28
78 | GUACAGCAAUAUUACGCGAU | -2.71 ± 0.26 | -4.98 ± 0.46
79 | GUACAGCAAUAUUACGCGCU | -0.689 ± 0.19 | -1.36 ± 0.13
80 | GUACAGCAAUAUUACGCGGG | -2.71 ± 0.15 | -1.5 ± 0.092
81 | GUACAGCAAUAUUACGCUCG | -0.344 ± 0.14 | -0.881 ± 0.13
82 | GUACAGCAAUAUUACGCUGC | -2.74 ± 0.3 | -4.33 ± 0.26
83 | GUACAGCAAUAUUACGGAAG | -3.01 ± 0.25 | -1.45 ± 0.11
84 | GUACAGCAAUAUUACGGACC | -2.1 ± 0.2 | -2.76 ± 0.13
85 | GUACAGCAAUAUUACGGGGU | -2.34 ± 0.11 | -3.29 ± 0.16
86 | GUACAGCAAUAUUACGGUAA | -0.97 ± 0.12 | -0.865 ± 0.13
87 | GUACAGCAAUAUUACGGUUC | -0.703 ± 0.08 | -1.29 ± 0.074
88 | GUACAGCAAUAUUACGUCUU | 0.628 ± 0.092 | -0.533 ± 0.079
89 | GUAGAGCAAUAUUACGAACA | -0.783 ± 0.16 | -2.46 ± 0.17
90 | GUAGAGCAAUAUUACGACGU | 0.352 ± 0.16 | -0.438 ± 0.16
91 | GUAGAGCAAUAUUACGACUG | -1.12 ± 0.24 | -1.22 ± 0.15
92 | GUAGAGCAAUAUUACGAGCG | -0.875 ± 0.21 | -0.682 ± 0.17
93 | GUAGAGCAAUAUUACGAUAG | -1.42 ± 0.14 | -2.06 ± 0.15
94 | GUAGAGCAAUAUUACGAUCU | -0.114 ± 0.15 | -0.617 ± 0.12
95 | GUAGAGCAAUAUUACGAUGC | -0.434 ± 0.13 | -0.0786 ± 0.15
96 | GUAGAGCAAUAUUACGCAGC | -2.37 ± 0.22 | -0.915 ± 0.17
97 | GUAGAGCAAUAUUACGCCCG | -1.85 ± 0.3 | -2.15 ± 0.3
98 | GUAGAGCAAUAUUACGCGCG | -0.12 ± 0.094 | -0.605 ± 0.07
